Measured values published in paper PMC9204741 (2022).

T1: His6-SmiA (B. subtilis)
T1 chain: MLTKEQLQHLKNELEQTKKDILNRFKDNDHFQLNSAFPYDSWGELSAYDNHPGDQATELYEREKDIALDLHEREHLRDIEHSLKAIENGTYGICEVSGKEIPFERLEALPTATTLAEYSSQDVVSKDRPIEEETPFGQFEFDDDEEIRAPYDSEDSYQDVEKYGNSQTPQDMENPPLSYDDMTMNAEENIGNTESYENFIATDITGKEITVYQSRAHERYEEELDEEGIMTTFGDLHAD

B1: GST-SwrA (natural protein)
chain: MKRASIVREKKYYELVEQLKDRTQDVTFSATKALSLLMLFSRYLVNYTNVESVNDINEECAKHYFNYLMKNHKRLGINLTDIKRSMHLISGLLDVDVNHYLKDFSLSNVTLWMTQER
B2: GST-SwrA^Δ101–117 (domain or fragment)
chain: MKRASIVREKKYYELVEQLKDRTQDVTFSATKALSLLMLFSRYLVNYTNVESVNDINEECAKHYFNYLMKNHKRLGINLTDIKRSMHLISGLLDVDVNHY

Columns and labels:
LonA-His6 (B. subtilis) = LonA-His6 (B. subtilis) (UniProt P37945)
His6-SmiA [1] = biological target: T1, His6-SmiA; assay: BLI
His6-SmiA [2] = biological target: T1, His6-SmiA; assay: BLI; His6-SmiA (300 nM) loaded on anti-penta-His (HIS1K) biosensors; GST-SwrA variants 50-400 nM as analyte; 1x PBS, 1x kinetics buffer, 2% dialyzed fetal bovine serum, 0.5 mM TCEP; 1:1 binding model; Octet RED96

Chain of LonA-His6 (B. subtilis) (P37945 whole entry): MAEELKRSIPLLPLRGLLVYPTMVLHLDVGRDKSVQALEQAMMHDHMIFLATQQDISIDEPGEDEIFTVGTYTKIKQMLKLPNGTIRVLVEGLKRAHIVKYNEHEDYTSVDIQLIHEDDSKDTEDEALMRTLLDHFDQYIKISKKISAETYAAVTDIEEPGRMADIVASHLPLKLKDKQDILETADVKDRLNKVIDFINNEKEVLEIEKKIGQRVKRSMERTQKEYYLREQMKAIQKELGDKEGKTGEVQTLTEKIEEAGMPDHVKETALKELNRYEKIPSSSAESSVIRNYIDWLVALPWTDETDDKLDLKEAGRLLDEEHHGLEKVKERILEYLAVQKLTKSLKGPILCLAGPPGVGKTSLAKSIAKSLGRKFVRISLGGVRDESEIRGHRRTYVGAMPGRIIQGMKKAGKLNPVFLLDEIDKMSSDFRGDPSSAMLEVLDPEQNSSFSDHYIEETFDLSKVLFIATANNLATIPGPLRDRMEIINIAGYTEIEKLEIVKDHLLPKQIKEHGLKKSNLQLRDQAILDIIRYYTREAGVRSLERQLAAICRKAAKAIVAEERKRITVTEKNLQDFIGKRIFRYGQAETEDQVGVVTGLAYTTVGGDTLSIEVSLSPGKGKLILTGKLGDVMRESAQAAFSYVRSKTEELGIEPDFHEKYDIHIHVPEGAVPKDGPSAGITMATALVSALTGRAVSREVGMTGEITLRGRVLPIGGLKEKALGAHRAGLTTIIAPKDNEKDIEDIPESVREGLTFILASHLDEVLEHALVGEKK

Molecule | Km of in vitro proteolysis of GST-mNG-SwrA (loss of fluorescence) with 0.25 μM LonA and 0.5 μM SmiA (LonA-His6 (B. subtilis)) | Kd (His6-SmiA [1]) | koff (His6-SmiA [2]) | kon (His6-SmiA [2]) | Kd (His6-SmiA [2])
GST-mNG-SwrA (from UniProt O32266 1-117) (natural protein) | 1.14 µM | – | – | – | –
B1 | – | 60.9 nM | 0.0093 s⁻¹ | 153000 M⁻¹ s⁻¹ | –
B2 | – | 43.2 nM | 0.00418 s⁻¹ | 96800 M⁻¹ s⁻¹ | 43.2 nM
